# Earlier results in patent US12383526B2, “Optimized sigma-1 agonist method of responder selection and treatment” (ANAVEX LIFE SCIENCES CORP., priority 2018, dated 2025).
# B1: BAN2401: comparison from other studies: data presented at CTAD 2018 for BAN2401 after 72 weeks (antibody, chains of the INN, looked up, V domains shown)
# VH: EVQLVESGGGLVQPGGSLRLSCSASGFTFSSFGMHWVRQAPGKGLEWVAYISSGSSTIYYGDTVKGRFTISRDNAKNSLFLQMSSLRAEDTAVYYCAREGGYYYGRSYYTMDYWGQGTTVTVSS
# VL: DVVMTQSPLSLPVTPGAPASISCRSSQSIVHSNGNTYLEWYLQKPGQSPKLLIYKVSNRFSGVPDRFSGSGSGTDFTLRISRVEAEDVGIYYCFQGSHVPPTFGPGTKLEIK
# Conditions: after 72 weeks; CTAD 2018; cited from earlier work
molecule,measurement,value
B1,adjusted mean change from baseline in ADAS-Cog,47%
same,adjusted mean change in ADCOMS,30%
